These results are taken from article PMC11408855, “The structure of the SufS–SufE complex reveals interactions driving protected persulfide transfer in iron-sulfur cluster biogenesis” (The Journal of Biological Chemistry, 2024).

In this assay the target is T1, EcSufS, C-terminal his-tagged (wild type) (Escherichia coli, UniProt P77444 1-406, PLP (pyridoxal 5'-phosphate) cofactor).
T1 construct: EcSufS, cysteine desulfurase SufS of Escherichia coli, UniProt P77444; the gene was cloned; also called WT EcSufS; cysteine desulfurase SufS; source: E. coli BL21(DE3)Δsuf, pET44, autoinduction, purified (Ni2+ HisTrap HP); not shown: His tag, C-terminal, kept
T1 sequence: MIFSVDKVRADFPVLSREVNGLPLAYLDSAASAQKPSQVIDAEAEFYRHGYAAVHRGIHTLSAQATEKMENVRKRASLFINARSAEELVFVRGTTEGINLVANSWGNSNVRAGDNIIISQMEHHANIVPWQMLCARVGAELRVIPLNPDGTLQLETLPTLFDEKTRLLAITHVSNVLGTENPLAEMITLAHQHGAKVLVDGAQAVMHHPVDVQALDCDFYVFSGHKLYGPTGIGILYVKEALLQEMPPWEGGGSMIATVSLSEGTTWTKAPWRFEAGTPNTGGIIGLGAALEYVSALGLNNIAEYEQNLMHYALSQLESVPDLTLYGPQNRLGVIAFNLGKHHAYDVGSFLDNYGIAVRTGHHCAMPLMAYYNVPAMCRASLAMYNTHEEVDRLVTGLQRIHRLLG
Description: fluorescence polarisation; 100 nM BODIPY-FL-labeled EcSufE titrated with EcSufS; 50 mM Mops pH 8.0, 150 mM NaCl, 0.1 mg/ml bovine serum albumin, 25 °C, 30 min; presence of 500 μM cysteine; apparent KD. The settings on record: both partners purified. On the technique in general: In fluorescence polarisation assays a small probe gives low polarisation when free and higher when bound to something large.

B1: BODIPY-FL-labeled C51A/E107C EcSufE (natural protein, Escherichia coli)
chain: MALLPDKEKLLRNFLRCANWEEKYLYIIELGQRLPELRDEDRSPQNSIQGAQSQVWIVMRQNAQGIIELQGDSDAAIVKGLIAVVFILYDQMTPQDIVNFDVRPWFCKMALTQHLTPSRSQGLEAMIRAIRAKAAALS
modifications: BODIPY-FL maleimide label (labeling efficiency 60 to 80%)
notes: EcSufE, transpersulfurase SufE of Escherichia coli, UniProt P76194, with C51A and E107C; also called "WT" EcSufE (double mutant background); C51A/E107C EcSufE control
In the case of B1, the Kd was determined as 600 nM.
